The values that follow come from patent US20210062213A1 (UT BATTELLE, published 2021).

First the molecules themselves.
B1: nVenus-U2B (U2 SMALL NUCLEAR RIBONUCLEOPROTEIN B fused with the N-terminal fragment of Venus) (other, Arabidopsis, UniProt O22922 1-232, looked up)
chain: MLTADIPPNQSIYIQNLNERIKKEELKRSLYCLFSQFGRILDVVALKTPKLRGQAWVTFSEVTAAGHAVRQMQNFPFYDKPMRLQYAKAKSDCLAKAEGTFVPKDKKRKQEEKVERKREDSQRPNTANGPSANGPSANNGVPAPSFQPSGQETMPPNNILFIQNLPHETTSMMLQLLFEQYPGFKEIRMIDAKPGIAFVEYEDDVQASIAMQPLQGFKITPQNPMVISFAKK
notes: BiFC fusion transiently expressed in Arabidopsis protoplasts; also called AT2G30260; not shown: N-terminal fragment of Venus (nVenus) from vector pSATI-nVenus-C
B3: nVenus-U1-70 k (U1 SMALL NUCLEAR RIBONUCLEOPROTEIN-70K fused with the N-terminal fragment of Venus) (other, Arabidopsis, UniProt Q42404 1-427, looked up)
chain: MGDSGDPFLRNPNAAVQARAKVQNRANVLQLKLMGQSHPTGLTNNLLKLFEPRPPLEYKPPPEKRKCPPYTGMAQFVSNFAEPGDPEYAPPKPEVELPSQKRERIHKLRLEKGVEKAAEDLKKYDPNNDPNATGDPYKTLFVSRLNYESSESKIKREFESYGPIKRVHLVTDQLTNKPKGYAFIEYMHTRDMKAAYKQADGQKIDGRRVLVDVERGRTVPNWRPRRLGGGLGTSRVGGGEEIVGEQQPQGRTSQSEEPSRPREEREKSREKGKERERSRELSHEQPRERSRDRPREDKHHRDRDQGGRDRDRDSRRDRDRTRDRGDRDRRDRDRGRDRTSRDHDRDRSRKKERDYEGGEYEHEGGGRSRERDAEYRGEPEETRGYYEDDQGDTDRYSHRYDKMEEDDFRYEREYKRSKRSESREYVR
notes: BiFC fusion transiently expressed in Arabidopsis protoplasts; also called AT3G50670; not shown: N-terminal fragment of Venus (nVenus) from vector pSATI-nVenus-C

Common to all, as to assay: bimolecular fluorescence complementation (BiFC) in Arabidopsis protoplasts
For assay [1], the target named is T1, cCFP-DGCR14/ESS2 (human DGCR14/ESS2 fused with the C-terminal fragment of CFP) (Homo sapiens, UniProt Q96DF8 1-476).
T1 construct: BiFC fusion transiently expressed in Arabidopsis leaf mesophyll protoplasts; also called Has DGCR14/ESS2; NM_022719; not shown: C-terminal fragment of CFP (cCFP) from vector pSATI-cCFP-C
T1 sequence: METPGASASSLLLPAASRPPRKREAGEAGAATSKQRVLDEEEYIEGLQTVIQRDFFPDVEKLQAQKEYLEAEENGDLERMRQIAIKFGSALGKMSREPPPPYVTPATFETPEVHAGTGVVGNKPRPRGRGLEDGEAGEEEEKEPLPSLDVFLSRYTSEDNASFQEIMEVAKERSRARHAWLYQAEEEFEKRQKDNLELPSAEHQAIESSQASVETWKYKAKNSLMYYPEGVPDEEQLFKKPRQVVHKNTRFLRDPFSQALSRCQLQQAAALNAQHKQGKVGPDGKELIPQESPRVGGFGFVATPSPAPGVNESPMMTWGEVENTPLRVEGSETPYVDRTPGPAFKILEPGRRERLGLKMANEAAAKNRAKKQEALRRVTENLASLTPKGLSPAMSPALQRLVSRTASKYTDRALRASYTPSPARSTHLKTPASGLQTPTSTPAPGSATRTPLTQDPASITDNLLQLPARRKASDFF
The protocol:
(§1) Protoplast isolation and transfection were performed as previously described (Xie et al. (The Plant Cell 30, 1645-1660 (2018)). For subcellular localization, 8 μg of DGCR14l-YFP and DGCR14/ESS2-YFP constructs were co-transfected with 2 μg of the nuclear marker construct (mCherry-)VirD2NLS), respectively, into 100 μl of protoplasts (˜2×10⁴ cells) to determine their subcellular localizations. For colocalization, paired constructs (5 μg each) were co-transfected into 100 μl of protoplasts. For BiFC, paired genes were cloned into pSATI-nVenus-C (fuse with nVenus) and pSATI-cCFP-C (fuse with cCFP), respectively. Then their expression cassettes were cloned into pUC119 (pUC-RCS) vector using AscI for transient expression in protoplasts. The generated constructs (4 μl of nVenus construct and 4 μl of cCFP construct) were co-transfected with 2 μl of the nuclear marker construct (mCherry-VirD2NLS) into 100 μl of protoplasts. After 14 h incubation under weak light at room temperature, protoplasts were collected and resuspended in cold W5 solution (2 mM MES pH 5.7, 154 mM NaCl, 125 mM CaCl₂, and 5 mM KCl) to subject to microscopy. Images were collected using a Zeiss LSM 710 confocal microscope, equipped with 514 and 561 nm laser lines for excitation of YFP and mCherry, respectively. Images were processed using Zen software (Zeiss).
(§2) To further test the association of DGCR14l and DGCR14/ESS2 with spliceosome, a bimolecular fluorescence complementation (BiFC) assay was performed in Arabidopsis protoplasts. In this assay, DGCR14 orthologs and U1-70 k were fused with split YFP (C-terminal fragment of CFP (cCFP) and N-terminal of Venus (nVenus)), and co-expressed in protoplasts. The interaction between two proteins will bring cCFP and nVenus together to form a functional YFP, which then leads to fluorescence. […] In contrast, no YFP signal was detected from DGCR14l-U2B or DGCR14/ESS2-U2B interaction (FIG. 2C), further supporting DGCR14's selectivity on spliceosome components.

The target in assay [2] is B1. On the procedure: as §1, §2
The target of assay [3] is B3. On the procedure: as §1, §2

As to B1, the binding result in assay [1] is “no binding”.

B2: cCFP-DGCR14l (Arabidopsis thaliana DGCR14-like fused with the C-terminal fragment of CFP) (other)
chain: MFLSPGHSPRQISSPSPSSYSDDTLRSTPRSSSSEIIPRNPRKRMRVLDEDAYVEAIEKIIERDYFPDITKLRDRLDWIQAVKTRDPIQIRDAQLKIIERRGKKANHHVGDTEGKTQTPGSTFLRNFTPLDEFDGKTPRTPGVSGREFHGVEVDAGDGDEDIDLNLSLDEFFRRYTSEDNESFSKILEKVNRKKKEKYGFLLEGEKEDGKSIEDVKRDRITDGYGTSDQPPSTLEGWKYTAKNLLMYHPADRGEAPLTEAERAVRLLGLTKEIVKGNTRFHGKTMDSRPREDGSVEILYTPIAGSSPMHISGRDRDKSKRYDLDDLRKTPNPFYVESDKRADNGYSFVRTPSPAPGLDESPFITWGEIDGTPMRLDLEDTPIDIGGSADGPHYNIPSAPPRDVRAHSLSRDASRKLRERSNSMFKKPPLPSPHRSGSASPNVRTLSPAAQKFFRKAIAKSSSTVDESLRASYRGASPRGASPGAVTPKSVRSISRFGKDGTSSETRSP
notes: BiFC fusion transiently expressed in Arabidopsis leaf mesophyll protoplasts; also called Ath DGCR14l; Arabidopsis DGCR14; not shown: C-terminal fragment of CFP (cCFP) from vector pSATI-cCFP-C
As for B2, the binding result in assay [2] was “no binding”; in assay [3] it was “binds”. In the case of B3, in assay [1], the binding result is reported as “binds”.
